# Assay results from article PMC4661877, “Enhancement of Chaperone Activity of Plant-Specific Thioredoxin through γ-Ray Mediated Conformational Change” (International Journal of Molecular Sciences, 2015).
# Molecular target: the molecule itself
# Assay: SEC; Superdex 200 10/300 GL, FPLC, 4 °C, 50 mM HEPES pH 8.0, 100 mM NaCl, 0.5 mL/min; size against standard proteins
protein,measurement,value
"Arabidopsis thaliana tetratricopeptide domain-containing thioredoxin (AtTDX), non-irradiated (enzyme, UniProt Q8VWG7 1-380, looked up, AtTDX, Arabidopsis thaliana tetratricopeptide domain-containing thioredoxin; 380 amino acids, 42 kDa; three TPR domains at the amino terminus and a thioredoxin domain at the carboxyl terminus; Mixture of LMW (mainly tetrameric) and HMW forms; also called non-irradiated AtTDX; 0 kGy) MVDAIQVAELRRFVEQLKLNPSILHDPSLVFFKEYLRSLGAQVPKIEKTERDYEDKAETKPSFSPKHDDDDDDIMESDVELDNSDVVEPDNEPPQPMGDPTAEVTDENRDDAQSEKSKAMEAISDGRFDEAIEHLTKAVMLNPTSAILYATRASVFLKVKKPNAAIRDANVALQFNSDSAKGYKSRGMAKAMLGQWEEAAADLHVASKLDYDEEIGTMLKKVEPNAKRIEEHRRKYQRLRKEKELQRAERERRKQQEAQEREAQAALNDGEVISIHSTSELEAKTKAAKKASRLLILYFTATWCGPCRYMSPLYSNLATQHSRVVFLKVDIDKANDVAASWNISSVPTFCFIRDGKEVDKVVGADKGSLEQKIAQHSSSK",stoichiometry N,4
